# In US8624002B2, “Prostaglandin E2 binding proteins and uses thereof” (AbbVie, Inc., priority 2008, dated 2014):
# Tests used:
# [1] = tested on: carrageenan-induced paw edema; test: Carrageenan-induced footpad edema model; format: in vivo, C57.BL/6 mice; conditions: 3 mg/kg, p.o.
# Procedure: Carrageenan-Induced Footpad Edema is an acute rodent model of innate immune function. The in vivo efficacy of mouse anti-PGE2 antibody 2B5-8.0 is assessed in a carragenan-induced paw edema model. The induction of paw inflammation with carrageenan is performed similarly as previously described (Joseph P. Portanova, et al. J. Exp. Med. 184: 883-891 (1996)). Intradermal (ID) injection of an inflammatory agent causes a rapid influx of neutrophils and fluid edema which peaks at approximately 4 hours, followed by an influx of macrophages and monocytes which peaks at approximately 48 hours. C57.BL/6 mice (8-10-week-old, Jackson Laboratories, Bar Harbor, Me.) were injected ID in the rear footpad with 30 μL of either PBS (left) or λ-carrageenen (Sigma Aldrich, St. Louis, Mo.) in PBS (right) at a concentration of 5.0 mg/mL (150 μg/mouse). Rear footpad thickness was measured by Dyer spring caliper model #310-119 at baseline (time=0), and 4 hours post carrageenan challenge. Significant difference for paw thickness was determined by comparing mean paw swelling for each treatment group to vehicle in a Student's two-tailed t-test. Mice were given a dose titration of an anti-PGE2 antibody (2B5-8.0) intraperitonially (IP) 18 hours prior to carrageenan challenge, or Indomethacin, PO 2 hours prior to challenge. The endpoint measured was the difference in paw swelling (edema) between right and left paws 4 hours after treatment.
# [2] = ^3H-PGE2 competition ELISA (prostaglandin selectivity); format: binding
# Procedure: Alternatively, prostaglandin selectivity was determined using a ^3H-PGE2 competition ELISA. Plates were coated with 50 μL/well of 5 μg/ml of goat anti-human IgG (Fc) (Thermo Scientific # 31170, Hudson, N.H.) or goat anti-mouse IgG (Fc) (Thermo Scientific # 31125, Hudson, N.H.) in PBS and incubated overnight at 4° C. The following day plates were flicked and blotted dry. Plates were blocked with 200 μL/well of Superblock (Thermo Scientific # 37515, Hudson, N.H.), 1 hour at room temperature. Plates were flicked and blotted dry. Monoclonal antibodies were diluted to 0.04 μg/ml in PBST (Abbott Bioresearch Center, Worcester, Mass.)/10% Superblock and 50 μL of each was added to each well (2 ng/well) of the pre-blocked ELISA plate and incubated for 1 hour at room temperature. Wells were washed 3 times with PBS/0.1% Tween-20. ^3H-PGE2 (Perkin Elmer # NET-428, Waltham, Mass.) was diluted in PBST/10% Superblock to 6 nM (2× stock). Each prostaglandin (Cayman Chemicals, Ann Arbor, Mich.) was prepared in PBST+10% Superblock at various concentrations ranging from 2000 μM (2× stock) to 0.00004 μM (2×). Equal volumes of the ^3H-PGE2 solution and of each prostaglandin dilution were mixed. Fifty microliters of this mixture was then added to each well of the plate and incubated for 1 hour at room temperature. Wells were washed manually 6 times with PBST/10% Superblock and 50 μL of scintillation fluid (Perkin Elmer # 6013621, Waltham, Mass.) added to each well. Plates were read using a TopCount reader (Perkin Elmer, Waltham, Mass.) with a 5 minute count delay. IC50 number was determined using GraphPad Prism 5 (GraphPad Software, La Jolla, Calif.). The cross reactivity index was then calculated by IC50 of PGE2/IC50 of other prostaglandin(s)
# [3] = tested on: PGE2 induced Ca++ influx in HEK293 Gα16 cells stably transfected with human EP4 receptor; test: EP4 bioassay: PGE2 induced Ca++ flux (FLIPR); format: cell-based; conditions: PGE2 25 pm; read-out: IC50 (pM) @ PGE2 25 pm Cellular Potency in EP4 assay
# Procedure: The ability of anti-PGE2 antibody to inhibit cellular response of PGE2 in vitro was determined in a Ca^++ flux assay in HEK293 Gα16 cells (Abbott Bioresearch Center, Worcester, Mass.) stably transfected with human EP4 receptor. In brief, an expression plasmid encoding one of the four human PGE2 receptors, EP4, and an expression plasmid encoding Gα16, were co-transfected into human embryonic kidney cell line 293 cells (ATCC# CRL1573, Manassas, Va.). The stable clones co-expressing both human EP4 and Gα16 protein were selected using standard methods (Joseph Sambrook and David W. Russell. Molecular Cloning: A Laboratory Manual Publisher. Published by Cold Spring Harbor Laboratory Press, 2001) and used for the EP4 bioassay. The HEK293 Gα16 cells were plated in black/clear poly-D-lysine plates (Corning #3667, Corning, N.Y.) and incubated with a Ca^++-sensitive dye (Molecular Devices, Sunnyvale, Calif.) for 90 minutes. Stock PGE2 (in 200 proof ethanol) was diluted with FLIPR buffer [containing 1×HBSS (Invitrogen Carlsbad, Calif.), 20 mM HEPES (Invitrogen Carlsbad, Calif.), 0.1% BSA (Sigma, St. Louis, Mo.) and 2.5 mM Probenecid (Sigma, St. Louis, Mo.)]. Anti-PGE2 antibodies or isotype matched control antibodies were also pre-diluted in FLIPR buffer. 25 μl of PGE2 or pre-incubated PGE2/antibody mixture was added to the wells pre-plated with cells. The dose response of PGE2 was determined on a serial titration of PGE2 and using FLIPR1 or Tetra (Molecular Devices, Sunnyvale, Calif.) and EC50 was determined using GraphPad Prism 5 (GraphPad Software, La Jolla, Calif.). […] Ca^++ flux was monitored using FLIPR1 and data was analyzed using GraphPad Prism 5 (GraphPad Software, La Jolla, Calif.).
# [4] = Capillary zone electrophoresis; format: physicochemical; conditions: running buffer pH 5.5; compared with Hu2B5.2, Hu2B5.4, Hu2B5.6, Hu2B5.8
# From the text: Capillary zone electrophoresis is a capillary electrophoresis method in which the capillary is filled with buffer and the separation mechanism is based on differences in electrophoretic mobility of the analyte through the buffer. The electrophoretic mobility of a molecule is related to the charge-to-size ratio. A Beckman-Coulter ProteomeLab PA 800 (Beckman Coulter, Fullerton, Calif.) was used for the CZE analysis. A neutral capillary (eCAP neutral, 56 cm total length, 50 μm I. D. Beckman-Coulter, P/N 477441, Fullerton, Calif.) was used. The method used a 30.2 cm capillary with a detection window 20.2 cm from the sample introduction inlet. The running buffer was 100 mM EACA (6-Aminocaproic acid, Sigma A7824-100 G, St. Louis, Mo.) with 0.1% MC (from 1% Methylcellulose solution, Convergent Bioscience, cat# 101876, Toronto, ON, Canada), pH 5.5.
# [5] = Pharmacokinetics of hu2B5.7 and hu2B5.4 in Sprague-Dawley rats; format: in vivo; conditions: male Sprague-Dawley rats, IV 4 mg/kg
# Procedure: Pharmacokinetic parameters were calculated by non-compartmental analysis using WinNonlin.
# MSD streptavidin plates (Meso Scale Discovery) were washed with phosphate buffered saline containing 0.05% Tween-20 (diluted from 10×PBS, Abbott Bioresearch Center, Media Room, Worcester, Mass. and Tween-20, Sigma, St. Louis, Mo.). Plates were blocked with 250 μL/well blocking solution (MSD Block, Meso Scale Discovery, diluted to 3% final concentration in PBS) for 1 hour, covered, with shaking (600 rpm) at room temperature. After washing, 70 μL of biotinylated PGE2 (Prostoglandin E2-biotinamide, Cayman Chemical, Ann Arbor, Mich., cat# 10006987, lot# 190831-191028; 0.01 ug/mL in assay buffer) was added to each well. The plates were covered and incubated with shaking (600 rpm) for 1 hour at room temperature.
# Prior to analysis, rat serum samples were thawed on ice, mixed gently, and centrifuged at 14,000 rpm for 3 minutes at 4° C. in an eppendorf centrifuge. Standard curve and control samples were prepared in rat serum. Tecan Evo automated liquid handling station was used to dilute standard curve, high, medium, and low controls, and serum samples in assay buffer, keeping 1% final serum concentration constant. MSD plates were washed again and study samples, standard curve samples and blanks, as well as high, medium, and low controls were added (70 μL/well). The plates were covered, and incubated for 1 hour with shaking (600 rpm) at room temperature.
# After incubation, the MSD plates were washed, and 70 μL sulfo-tagged goat anti-human IgG (Meso Scale Discovery; diluted to 1 ug/mL in assay buffer) was added to each well. The MSD plates were covered, and incubated with shaking (600 rpm) for 1 hour at room temperature, then the plates were washed and developed with 2× Read Buffer (Meso Scale Discovery). Chemilumeniscence was measured within ten minutes on the MSD Sector Imager 6000.
# Standard curves were analyzed using four-parameter logistic fit and sample concentrations were calculated by XLfit4 software version 2.2.1 Build 16, ([…].). Pharmacokinetic parameters were calculated for each animal using Winonlin software version 5.0.1 (Pharsight Corporation, Mountain View, Calif.) by noncompartmental analysis.
# Surgically altered jugular vein cannulated, JVC) male Sprague-Dawley Rats (approximately seven weeks old, weighing 240-390 grams) were purchased from Charles River Laboratories (Wilmington, Mass.). The animals were housed in rooms maintained at constant temperature and humidity under a 12 hour light/dark cycle, fed with normal rodent chow and were allowed food and water ad libitum. Hydration and clinical conditions of the animals were monitored daily.
# 0.2 mL blood samples were collected from the rats at various timepoints, allowed to clot for 30 minutes at room temperature, centrifuged for 3 minutes at 13,200 rpm, the serum transferred to eppendorf tubes and stored frozen at −80° C.
# [6] = Biotin-PGE2 ELISA (PGE2-biotinamide binding to captured IgG)
Molecule,"Δ Paw Swelling (mm) ([1]; 2 hours prior to challenge, 4 hours post challenge)",% Inhibition ([1]; paw swelling 4 hours post challenge),prostaglandin binding specificity in ^3H-PGE2 competition ELISA [2],IC50 [3],migration in capillary zone electrophoresis [4],AUC0-∞ [5],CL [5],MRT [5],T½ [5],Vss [5],Vz [5],EC50 [6]
"COc1ccc2c(c1)c(CC(=O)O)c(C)n2C(=O)c1ccc(Cl)cc1 [Indomethacin, reference compound]",0.486 ± 0.03 mm,57 ± 3.5%,,,,,,,,,,
"Hu2B5.7: humanized 2B5-8.0; VH SEQ ID NO 72, VL SEQ ID NO 73 (antibody, V domains shown) VH: EVQLVQSGAEVKKPGASVKVSCKASGYTFTKYWLGWVRQAPGQGLEWMGDIYPGYDYTHYNEKFKDRVTLTTDTSTSTAYMELRSLRSDDTAVYYCARSDGSSTYWGQGTLVTVSS VL: DVLMTQTPLSLPVTPGEPASISCTSSQNIVHSNGNTYLEWYLQKPGQSPQLLIYKVSNRFSGVPDRFSGSGSGTDFTLKISRVEAEDVGVYYCFQVSHVPYTFGGGTKVEIKR",,,demonstrated specificity to PGE2,78 pM,migrated more basic,9900 ± 1800 µg·h/mL,9.84 ± 1.7 mL/day/kg,16.8 ± 1.0 days,12.4 days,0.165 ± 0.0198 L/kg,0.176 ± 0.0308 L/kg,79 pM
"Hu2B5.5: humanized 2B5-8.0; VH SEQ ID NO 68, VL SEQ ID NO 69 (antibody, V domains shown) VH: EVQLVQSGAEVKKPGASVKVSCKASGYTFTKYWLGWVRQAPGQGLEWMGDIYPGYDYTHYNEKFKDRVTLTTDTSTSTAYMELRSLRSDDTAVYYCARSDGSSTYWGQGTLVTVSS VL: DVVMTQTPLSLPVTPGEPASISCTSSQNIVHSNGNTYLEWYLQKPGQSPQLLIYKVSNRFSGVPDRFSGSGSGTDFTLKISRVEAEDVGVYYCFQVSHVPYTFGGGTKVEIKR",,,,47 pM,migrated more basic,,,,,,,37 pM
